Laboratory results reported in US20250333461A1 (BEIJING QL BIOPHARMACEUTICAL, published 2025).

Biological target: human beta-Klotho (human, UniProt Q86Z14 1-1044)
Experiment: cell-based or functional assay

B1: Native FGF21 (ligand)
chain: HPIPDSSPLLQFGGQVRQRYLYTDDAQQTEAHLEIREDGTVGGAADQSPESLLQLKALKPGVIQILGVKTSRFLCQRPDGALYGSLHFDPEACSFRELLLEDGYNVYQSEAHGLPLHLPGNKSPHRDPAPRGPARFLPLPGLPPALPEPPGILAPQPPDVGSSDPLSMVGPSQGRSPSYAS
Q: With B1 as the binder, how does the “FGF21 activity (EC50, nM); p-ERK levels, 1% HSA” value read?
A: The value was 0.96 nM.
